Measured values as given in IntAct's records for PubMed 16239229.

B1: Co-chaperonin GroES (Escherichia coli (strain K12)), P0A6F9 (parent)
chain: MNIRPLHDRVIVKRKEVETKSAGGIVLTGSAAAKSTRGEVLAVGNGRILENGEVKPLDVKVGDIVIFNDGYGVKSEKIDNEEVLIMSESDILAIVEA

Variants of: B1
Settings: with ch60_ecoli groEL
In the case of S30C, the “effect of a mutation on the interaction” value is reported as “increasing interaction strength”. In the case of G29C, the “effect of a mutation on the interaction” value is reported as “increasing interaction strength”. For T28C, the “effect of a mutation on the interaction” value was “increasing interaction”.
